Measured values as given in IntAct's records for PubMed 35512704.

B1: Speckle-type POZ protein (Homo sapiens), O43791 (parent)
chain: MSRVPSPPPPAEMSSGPVAESWCYTQIKVVKFSYMWTINNFSFCREEMGEVIKSSTFSSGANDKLKWCLRVNPKGLDEESKDYLSLYLLLVSCPKSEVRAKFKFSILNAKGEETKAMESQRAYRFVQGKDWGFKKFIRRDFLLDEANGLLPDDKLTLFCEVSVVQDSVNISGQNTMNMVKVPECRLADELGGLWENSRFTDCCLCVAGQEFQAHKAILAARSPVFSAMFEHEMEESKKNRVEINDVEPEVFKEMMCFIYTGKAPNLDKMADDLLAAADKYALERLKVMCEDALCSNLSVENAAEILILADLHSADQLKTQAVDFINYHASDVLETSGWKSMVVSHPHLVAEAYRSLASAQCPFLGPPRKRLKQS

Variants of: B1
Details: with brd4_human BRD4, O60885

Variant	effect of a mutation on the interaction
F133L	disrupting interaction strength

Variants of: B1
Details: with ncoa3_human NCOA3, Q9Y6Q9

Variant	effect of a mutation on the interaction
F133L	disrupting interaction strength

Variants of: B1
Details: with jun_human JUN

Variant	effect of a mutation on the interaction
F133L	with no effect

Variants of: B1
Details: with akt1_human AKT1, P31749

Variant	effect of a mutation on the interaction
F133L	with no effect

Variants of: B1
Details: with alk_human ALK

Variant	effect of a mutation on the interaction
F133L	with no effect

Variants of: B1
Details: with aph1a_human APH1A

Variant	effect of a mutation on the interaction
F133L	with no effect

Variants of: B1
Details: with arnt_human ARNT

Variant	effect of a mutation on the interaction
F133L	with no effect

Variants of: B1
Details: with arc1a_human ARPC1A

Variant	effect of a mutation on the interaction
F133L	with no effect

Variants of: B1
Details: with arrb2_human ARRB2, P32121

Variant	effect of a mutation on the interaction
F133L	with no effect

Variants of: B1
Details: with bakor_human ATG14, Q6ZNE5

Variant	effect of a mutation on the interaction
F133L	with no effect

Variants of: B1
Details: with atm_human ATM

Variant	effect of a mutation on the interaction
F133L	with no effect

Variants of: B1
Details: with atpb_human ATP5F1B

Variant	effect of a mutation on the interaction
F133L	with no effect

Variants of: B1
Details: with aurkb_human AURKB

Variant	effect of a mutation on the interaction
F133L	with no effect

Variants of: B1
Details: with axin2_human AXIN2, Q9Y2T1

Variant	effect of a mutation on the interaction
F133L	with no effect

Variants of: B1
Details: with za2g_human AZGP1, P25311

Variant	effect of a mutation on the interaction
F133L	with no effect

Variants of: B1
Details: with bap1_human BAP1, Q92560

Variant	effect of a mutation on the interaction
F133L	with no effect

Variants of: B1
Details: with bcor_human BCOR

Variant	effect of a mutation on the interaction
F133L	with no effect

Variants of: B1
Details: with brd4_human BRD4, O60885
Remark: another data set of the same source

Variant	effect of a mutation on the interaction
F133L	with no effect

Variants of: B1
Details: with baba2_human BABAM2, Q9NXR7

Variant	effect of a mutation on the interaction
F133L	with no effect

Variants of: B1
Details: with btg1_human BTG1, P62324

Variant	effect of a mutation on the interaction
F133L	with no effect

Variants of: B1
Details: with btk_human BTK

Variant	effect of a mutation on the interaction
F133L	with no effect

Variants of: B1
Details: with cblb_human CBLB

Variant	effect of a mutation on the interaction
F133L	with no effect

Variants of: B1
Details: with ccnd1_human CCND1, P24385

Variant	effect of a mutation on the interaction
F133L	with no effect

Variants of: B1
Details: with ccnd2_human CCND2, P30279

Variant	effect of a mutation on the interaction
F133L	with no effect

Variants of: B1
Details: with ccnd3_human CCND3, P30281

Variant	effect of a mutation on the interaction
F133L	with no effect

Variants of: B1
Details: with cd44_human CD44, P16070

Variant	effect of a mutation on the interaction
F133L	with no effect

Variants of: B1
Details: with cd79b_human CD79B

Variant	effect of a mutation on the interaction
F133L	with no effect

Variants of: B1
Details: with cdc27_human CDC27, P30260

Variant	effect of a mutation on the interaction
F133L	with no effect

Variants of: B1
Details: with cdc73_human CDC73, Q6P1J9

Variant	effect of a mutation on the interaction
F133L	with no effect

Variants of: B1
Details: with cdk4_human CDK4, P11802

Variant	effect of a mutation on the interaction
F133L	with no effect

Variants of: B1
Details: with cdk6_human CDK6, Q00534

Variant	effect of a mutation on the interaction
F133L	with no effect

Variants of: B1
Details: with cdn2c_human CDKN2C

Variant	effect of a mutation on the interaction
F133L	with no effect

Variants of: B1
Details: with chd1l_human CHD1L

Variant	effect of a mutation on the interaction
F133L	with no effect

Variants of: B1
Details: with chd2_human CHD2, O14647

Variant	effect of a mutation on the interaction
F133L	with no effect

Variants of: B1
Details: with chk2_human CHEK2, O96017

Variant	effect of a mutation on the interaction
F133L	with no effect

Variants of: B1
Details: with ch3l1_human CHI3L1, P36222

Variant	effect of a mutation on the interaction
F133L	with no effect

Variants of: B1
Details: with csf1r_human CSF1R

Variant	effect of a mutation on the interaction
F133L	with no effect

Variants of: B1
Details: with ctla4_human CTLA4, P16410

Variant	effect of a mutation on the interaction
F133L	with no effect

Variants of: B1
Details: with cul3_human CUL3, Q13618

Variant	effect of a mutation on the interaction
F133L	with no effect

Variants of: B1
Details: with daxx_human DAXX

Variant	effect of a mutation on the interaction
F133L	with no effect

Variants of: B1
Details: with ddx5_human DDX5, P17844

Variant	effect of a mutation on the interaction
F133L	with no effect

Variants of: B1
Details: with dll3_human DLL3, Q9NYJ7

Variant	effect of a mutation on the interaction
F133L	with no effect

Variants of: B1
Details: with duox2_human DUOX2, Q9NRD8

Variant	effect of a mutation on the interaction
F133L	with no effect

Variants of: B1
Details: with e2f2_human E2F2, Q14209

Variant	effect of a mutation on the interaction
F133L	with no effect

Variants of: B1
Details: with e2f3_human E2F3, O00716

Variant	effect of a mutation on the interaction
F133L	with no effect

Variants of: B1
Details: with e2f5_human E2F5, Q15329

Variant	effect of a mutation on the interaction
F133L	with no effect

Variants of: B1
Details: with e2f6_human E2F6, O75461

Variant	effect of a mutation on the interaction
F133L	with no effect

Variants of: B1
Details: with e2f8_human E2F8, A0AVK6

Variant	effect of a mutation on the interaction
F133L	with no effect

Variants of: B1
Details: with if4e_human EIF4E

Variant	effect of a mutation on the interaction
F133L	with no effect

Variants of: B1
Details: with epha7_human EPHA7, Q15375

Variant	effect of a mutation on the interaction
F133L	with no effect

Variants of: B1
Details: with ephb1_human EPHB1, P54762

Variant	effect of a mutation on the interaction
F133L	with no effect

Variants of: B1
Details: with erbb3_human ERBB3, P21860

Variant	effect of a mutation on the interaction
F133L	with no effect

Variants of: B1
Details: with erbb4_human ERBB4, Q15303

Variant	effect of a mutation on the interaction
F133L	with no effect

Variants of: B1
Details: with esr1_human ESR1, P03372

Variant	effect of a mutation on the interaction
F133L	with no effect

Variants of: B1
Details: with etv1_human ETV1, P50549

Variant	effect of a mutation on the interaction
F133L	with no effect

Variants of: B1
Details: with ezh1_human EZH1, Q92800

Variant	effect of a mutation on the interaction
F133L	with no effect

Variants of: B1
Details: with ezh2_human EZH2, Q15910

Variant	effect of a mutation on the interaction
F133L	with no effect

Variants of: B1
Details: with facd2_human FANCD2, Q9BXW9

Variant	effect of a mutation on the interaction
F133L	with no effect

Variants of: B1
Details: with fgf19_human FGF19, O95750

Variant	effect of a mutation on the interaction
F133L	with no effect

Variants of: B1
Details: with fgfp1_human FGFBP1, Q14512

Variant	effect of a mutation on the interaction
F133L	with no effect
